Measured values published in ChEMBL document CHEMBL2074354, “Chlorambucil-taurocholate is transported by bile acid carriers expressed in human hepatocellular carcinomas” (Gastroenterology, 1997).

Substrate: [H][C@]12CC[C@]3([H])[C@]([H])(C[C@H](O)[C@]4(C)C(C(C)CCC(=O)NCCS(=O)(=O)O)CC[C@@]34[H])[C@@]1(C)CC[C@H](OCCNC(=O)CCCc1ccc(N(CCCl)CCCl)cc1)C2
Experiment: TP_TRANSPORTER: uptake in Xenopus laevis oocytes
Format: functional, cell-based, Oocyte

B1: Hepatic sodium/bile acid cotransporter (Homo sapiens) (protein)
chain: MEAHNASAPFNFTLPPNFGKRPTDLALSVILVFMLFFIMLSLGCTMEFSKIKAHLWKPKGLAIALVAQYGIMPLTAFVLGKVFRLKNIEALAILVCGCSPGGNLSNVFSLAMKGDMNLSIVMTTCSTFCALGMMPLLLYIYSRGIYDGDLKDKVPYKGIVISLVLVLIPCTIGIVLKSKRPQYMRYVIKGGMIIILLCSVAVTVLSAINVGKSIMFAMTPLLIATSSLMPFIGFLLGYVLSALFCLNGRCRRTVSMETGCQNVQLCSTILNVAFPPEVIGPLFFFPLLYMIFQLGEGLLLIAIFWCYEKFKTPKDKTKMIYTAATTEETIPGALGNGTYKGEDCSPCTA
Work on B1 yielded a Km of 11 µM.
